{"source": "the RNAGym collection of RNA variant scans (doi:10.1073/pnas.2313332121)", "parents": {"B1": {"name": "TPR 5TU (parent)", "chain": "GGAUCUUCUCGAUCUAACAAAAAAGACAAAUCUGCCACAAAGCUUGAGAGCAUCUUCGGAUGCAGAGGCGGCAGCCUUCGGUGGCGCGAUAGCGCCAACGUUCUCAACUAUGACACGCAAAACGCGUGCUCCGUUGAAUGGAGUUUAUCAUG"}}, "note": "Variants at the floor of the assay were thinned out.", "data": [{"variants_of": "B1", "test": "polymerase ribozyme fitness, log enrichment relative to wild type (log ratio); higher = more active; in vitro selection for triplet polymerase activity", "in_short": "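Each subunit of a heterodimeric triplet polymerase ribozyme was represented by a PCR-built, transcribed mutant library that underwent triplicate single-round in vitro selection with frozen incubation at −7 °C. Extended constructs were recovered by gel excision, streptavidin-bead capture and RT-PCR, and Illumina sequencing of input and output libraries kept genotypes with ≥10 input reads and ≥1 read per output. Fitness is the logarithm of genotype enrichment relative to wild-type enrichment, from inverse-variance-weighted replicate averages, with a logarithm base of 2.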", "values": [{"variant": "A3C C14G C103G A119G", "polymerase ribozyme fitness (log ratio)": "≤ -4.2"}, {"variant": "A3U C54U U56A C95U C123U A150C G152U", "polymerase ribozyme fitness (log ratio)": -3.58}, {"variant": "U4A A17U A66G C69A G84U A138U", "polymerase ribozyme fitness (log ratio)": "≤ -4.2"}, {"variant": "A3U A20C C54U G86C C125U", "polymerase ribozyme fitness (log ratio)": -4.19}, {"variant": "A3C G83A G136C", "polymerase ribozyme fitness (log ratio)": -3.35}, {"variant": "A3C U56A C69U A91U", "polymerase ribozyme fitness (log ratio)": "≤ -4.2"}, {"variant": "A3G U6A U33G G50A C79U C129A", "polymerase ribozyme fitness (log ratio)": "≤ -4.2"}, {"variant": "A3U A30G G86C C96U", "polymerase ribozyme fitness (log ratio)": -4}, {"variant": "A3G A19U C27A U82A C93G U111G", "polymerase ribozyme fitness (log ratio)": "≤ -4.2"}, {"variant": "A3U C35U U77C G84C A89G C118U", "polymerase ribozyme fitness (log ratio)": "≤ -4.2"}, {"variant": "A3G U6A A40G C87A", "polymerase ribozyme fitness (log ratio)": "≤ -4.2"}, {"variant": "A3U C85U", "polymerase ribozyme fitness (log ratio)": -0.254}, {"variant": "A3C U13C C51U C57U C87U C96G U139C", "polymerase ribozyme fitness (log ratio)": "≤ -4.2"}, {"variant": "A3U C32U G59A G83C C129U A137C", "polymerase ribozyme fitness (log ratio)": "≤ -4.2"}, {"variant": "A3G G83U", "polymerase ribozyme fitness (log ratio)": -0.444}, {"variant": "A3U C27U G81A C96A", "polymerase ribozyme fitness (log ratio)": -3.11}, {"variant": "A3U C5A A19U G50A C57U", "polymerase ribozyme fitness (log ratio)": -3.13}, {"variant": "A3U A37C G84U", "polymerase ribozyme fitness (log ratio)": -2.36}, {"variant": "A3G C27A G88C A122C A138U", "polymerase ribozyme fitness (log ratio)": "≤ -4.2"}, {"variant": "A3G A22C", "polymerase ribozyme fitness (log ratio)": -0.593}, {"variant": "A3G C54A C95U", "polymerase ribozyme fitness (log ratio)": -2.06}, {"variant": "A3G U9G C51U G67C G81C A89G A97G", "polymerase ribozyme fitness (log ratio)": "≤ -4.2"}, {"variant": "A3U C5U C87U C96G C131A", "polymerase ribozyme fitness (log ratio)": "≤ -4.2"}, {"variant": "A3C U31G U53A U55A C96A A115G G126A A142C", "polymerase ribozyme fitness (log ratio)": "≤ -4.2"}, {"variant": "A3U U4C G88U G92U A97G", "polymerase ribozyme fitness (log ratio)": "≤ -4.2"}, {"variant": "A3U G50U U145C", "polymerase ribozyme fitness (log ratio)": -0.472}, {"variant": "A3U G59A A120U", "polymerase ribozyme fitness (log ratio)": -0.556}, {"variant": "A3G A17U G34A C118G U146A C149A", "polymerase ribozyme fitness (log ratio)": "≤ -4.2"}, {"variant": "U4A A22C C96G A119U C149U", "polymerase ribozyme fitness (log ratio)": -3.08}, {"variant": "U4A A12C G50A G84U G141U", "polymerase ribozyme fitness (log ratio)": -3.8}, {"variant": "A3C U33C U44A U56G C85G", "polymerase ribozyme fitness (log ratio)": "≤ -4.2"}, {"variant": "A3U C18G A22G G94C C131U", "polymerase ribozyme fitness (log ratio)": "≤ -4.2"}, {"variant": "A3U G59U", "polymerase ribozyme fitness (log ratio)": -0.0606}, {"variant": "A3G C96A A98U U102C", "polymerase ribozyme fitness (log ratio)": -2.26}, {"variant": "A3U A47C", "polymerase ribozyme fitness (log ratio)": -0.9}, {"variant": "A3C G34C C43U A91G", "polymerase ribozyme fitness (log ratio)": "≤ -4.2"}, {"variant": "A3U U15A A21U U31A C85G", "polymerase ribozyme fitness (log ratio)": -0.347}, {"variant": "A3C U9G U33G A49U G74U U77G C93G U104A", "polymerase ribozyme fitness (log ratio)": "≤ -4.2"}, {"variant": "A3C C5G G92U U134C U135A", "polymerase ribozyme fitness (log ratio)": -1.39}, {"variant": "A3U A30U G34U G58A C87G C95U C131G", "polymerase ribozyme fitness (log ratio)": "≤ -4.2"}, {"variant": "A3U A16U C93U U102C", "polymerase ribozyme fitness (log ratio)": -4.1}, {"variant": "A3U C57U C85A C118U C125A", "polymerase ribozyme fitness (log ratio)": -2.55}]}]}
